Test results published in US20240109945A1 (published 2024).
Numbering of substitutions follows the chain as printed. Names and notes keep the numbering of the source. No end group written: not given here. M3N2 = N-glycan

B1: Fbs1-1 (WT) (designed binder)
chain: MGSSHHHHHHHHSSGENLYFQSHMASQQEGLVPEGSADEERDHWQQFYFLSKRRRNLLRNPCGEEDLEGWSDVEHGGDGWRVEELPGDNGVEFTQDDSVKKYFASSFEWCRKAQVIDLQAEGYWEELLDTTQPAIVVKDWYSGRTDAGSLYELTVRLLSENEDVLAEFATGQVAVPEDGSWMEISHTFIDYGPGVRFVRFEHGGQDSVYWKGWFGARVTNSSVWVEP
B2: Fbs1-6 (E153R.N159G.F177Y.E178R) (designed binder)
chain: B1 chain with E83R, N89G, F107Y, E108R
B3: Fbs1-7 (E154R.N159G.F177Y.E178R) (designed binder)
chain: B1 chain with E84R, N89G, F107Y, E108R
B4: Fbs1-2 (F177Y.E178R) (designed binder)
chain: B1 chain with F107Y, E108R
B5: Fbs1-3 (N159G.F177Y.E178R) (designed binder)
chain: B1 chain with N89G, F107Y, E108R
B6: Fbs1-8 (E153R.E154R.N159G.F177Y.E178R) (designed binder)
chain: B1 chain with E83R, E84R, N89G, F107Y, E108R
B7: Variant Fbs1-7 (designed binder)
chain: B1 chain with E84R, N89G, F107Y, E108R
B8: Variant Fbs1-8 (designed binder)
chain: B1 chain with E83R, E84R, N89G, F107Y, E108R
B9: Variant Fbs1-3 (designed binder)
chain: B1 chain with N89G, F107Y, E108R
B10: Variant Fbs1-1 (designed binder)
chain: B1 chain
B11: Variant Fbs1-2 (designed binder)
chain: B1 chain with F107Y, E108R
B12: Variant Fbs1-6 (designed binder)
chain: B1 chain with E83R, N89G, F107Y, E108R

molecular target: G2PB; assay: BLI

Row | Kd | Binder
1 | 27.5 µM | B1
2 | 0.79 µM | B2
3 | 1.45 µM | B3
4 | 26.8 µM | B4
5 | 0.54 µM | B5
6 | 1.19 µM | B6

Molecular target: T1, biotinylated N-glycopeptide A3Man (AVSHN(M3N2)ASLE) (also: biotinylated, position not given here)
T1 peptide: AVSHN(M3N2)ASLE
Assay: BLI

Row | Kd | Binder
7 | 0.86 µM | B7
8 | 1.14 µM | B8
9 | 0.88 µM | B9
10 | 4.3 µM | B10
11 | 0.61 µM | B11
12 | 0.2 µM | B12
